According to PMC13694701 (2026):

Legend:
TRIM62 PRY-SPRY = TRIM62 PRY-SPRY (Homo sapiens, UniProt Q9BVG3); test: MST
TRIM62 = TRIM62 (Homo sapiens, UniProt Q9BVG3); test: MST
Chain of TRIM62 (Q9BVG3 whole entry): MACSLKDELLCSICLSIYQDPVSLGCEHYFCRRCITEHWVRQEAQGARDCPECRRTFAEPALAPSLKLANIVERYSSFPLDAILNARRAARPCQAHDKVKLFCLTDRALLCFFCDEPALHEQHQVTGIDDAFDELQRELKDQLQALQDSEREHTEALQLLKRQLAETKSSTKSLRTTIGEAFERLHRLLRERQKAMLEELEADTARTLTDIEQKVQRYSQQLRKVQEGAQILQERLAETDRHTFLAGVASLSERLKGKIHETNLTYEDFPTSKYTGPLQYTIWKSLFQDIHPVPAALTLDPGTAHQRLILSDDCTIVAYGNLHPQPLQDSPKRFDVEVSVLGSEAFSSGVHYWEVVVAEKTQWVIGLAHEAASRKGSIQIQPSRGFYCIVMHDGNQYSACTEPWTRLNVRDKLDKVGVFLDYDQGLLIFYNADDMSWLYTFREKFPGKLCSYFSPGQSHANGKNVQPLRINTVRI

Chain of TRIM62 PRY-SPRY (Q9BVG3 277-475): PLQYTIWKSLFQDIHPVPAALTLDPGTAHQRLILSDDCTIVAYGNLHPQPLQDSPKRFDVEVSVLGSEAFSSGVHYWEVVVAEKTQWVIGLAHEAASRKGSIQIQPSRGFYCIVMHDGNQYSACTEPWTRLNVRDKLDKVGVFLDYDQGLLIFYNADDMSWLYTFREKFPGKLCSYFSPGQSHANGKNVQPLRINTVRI

- Kd (TRIM62 PRY-SPRY): 44.9 µM
- Kd (TRIM62): 0.4 µM
B1: FAM21 1-356 (protein)
chain: MMNRTTPDQELVPASEPVWERPWSVEEIRRSSQSWSLAADAGLLQFLQEFSQQTISRTHEIKKQVDGLIRETKATDCRLHNVFNDFLMLSNTQFIENRVYDEEVEEPVLKAEAEKTEQEKTREQKEVDLIPKVQEAVNYGLQVLDSAFEQLDIKAGNSDSEEDDANGRVELILEPKDLYIDRPLPYLIGSKLFMEQEDVGLGELSSEEGSVGSDRGSIVDTEEEKEEEESDEDFAHHSDNEQNQHTTQMSDEEEDDDGCDLFADSEKEEEDIEDIEENTRPKRSRPTSFADELAARIKGDAMGRVDEEPTTLPSGEAKPRKTLKEKKERRTPSDDEEDNLFAPPKLTDEDFSPFGS
